From IntAct's records for PubMed 24855949

Key:
[1] = biological target: T1, iaspp_human PPP1R13L (UniProt Q8WUF5)
T1 sequence: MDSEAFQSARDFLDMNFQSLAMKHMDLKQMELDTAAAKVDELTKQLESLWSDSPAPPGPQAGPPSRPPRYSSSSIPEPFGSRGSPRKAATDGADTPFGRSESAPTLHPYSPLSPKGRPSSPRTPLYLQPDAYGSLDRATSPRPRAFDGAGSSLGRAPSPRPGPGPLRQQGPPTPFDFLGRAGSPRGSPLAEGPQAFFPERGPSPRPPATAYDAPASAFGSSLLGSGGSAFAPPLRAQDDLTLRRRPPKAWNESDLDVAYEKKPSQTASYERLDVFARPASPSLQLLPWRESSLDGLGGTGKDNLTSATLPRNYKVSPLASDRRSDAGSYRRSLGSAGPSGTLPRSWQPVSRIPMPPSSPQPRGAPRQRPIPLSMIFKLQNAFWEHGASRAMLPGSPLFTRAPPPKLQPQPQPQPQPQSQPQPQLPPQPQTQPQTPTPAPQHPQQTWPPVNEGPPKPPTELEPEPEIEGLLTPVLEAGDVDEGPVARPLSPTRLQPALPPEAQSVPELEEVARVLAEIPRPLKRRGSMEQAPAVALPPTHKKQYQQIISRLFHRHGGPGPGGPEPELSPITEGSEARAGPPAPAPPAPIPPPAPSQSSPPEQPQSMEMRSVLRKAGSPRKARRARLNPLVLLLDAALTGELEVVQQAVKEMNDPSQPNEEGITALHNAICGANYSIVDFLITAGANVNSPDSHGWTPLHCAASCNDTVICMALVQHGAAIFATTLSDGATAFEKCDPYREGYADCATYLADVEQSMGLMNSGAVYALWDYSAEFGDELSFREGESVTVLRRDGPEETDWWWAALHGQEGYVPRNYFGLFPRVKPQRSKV

[2] = biological target: cdn2a_human CDKN2A (UniProt P42771)
[3] = biological target: ikba_chick NFKBIA (UniProt Q91974)
Chain of ikba_chick NFKBIA (Q91974 whole entry): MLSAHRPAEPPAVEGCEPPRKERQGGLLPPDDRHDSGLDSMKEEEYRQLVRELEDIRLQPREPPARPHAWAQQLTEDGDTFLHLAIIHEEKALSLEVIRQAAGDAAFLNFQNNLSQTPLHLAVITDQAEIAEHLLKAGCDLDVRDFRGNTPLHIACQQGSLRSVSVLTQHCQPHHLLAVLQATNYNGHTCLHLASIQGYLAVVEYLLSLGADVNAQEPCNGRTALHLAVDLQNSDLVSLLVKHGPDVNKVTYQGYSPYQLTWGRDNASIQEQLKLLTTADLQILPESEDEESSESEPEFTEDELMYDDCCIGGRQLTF

[4] = biological target: T1, iaspp_human PPP1R13L; remark: listed apart in the source

Row | effect of a mutation on the interaction [1] | effect of a mutation on the interaction [2] | effect of a mutation on the interaction [3] | effect of a mutation on the interaction [4] | Substance
1 | disrupting interaction strength | disrupting interaction strength |  |  | GTP-binding nuclear protein Ran (Homo sapiens) (from UniProt P62826) Q69L
2 |  |  | decreasing interaction strength |  | GTP-binding nuclear protein Ran (Homo sapiens) (from UniProt P62826) V188R
3 |  |  | decreasing interaction strength | decreasing interaction strength | GTP-binding nuclear protein Ran (Homo sapiens) (from UniProt P62826) V187R;V188R
